Measurements as given in patent US20160067347A1, “APJ RECEPTOR AGONISTS AND USES THEREOF” (AMGEN INC., priority 2012, published 2016).
*1 amine or outer side, *2 acyl side, *3 side chain or, on linkers, in order; H or OH if unused. Where a SMILES comes first, the peptide text is derived from it. Primed or numbered codes have the meaning given here. Where no end group is shown, it is not given here. [ ]: non-standard residue; d: D form. Atz = (S)-2-amino-3-(1H-1,2,3-triazol-4-yl)propanoyl residue, substituent (PEG) on triazole N1, O=C([C@H](Cc1cn([*:3])nn1)N[*:1])[*:2]; Oic = O=C(O)[C@@H]1C[C@@H]2CCCC[C@@H]2N1; Phe(4-Cl) = N[C@@H](Cc1ccc(Cl)cc1)C(=O)O; 1Nal = N[C@@H](Cc1cccc2ccccc12)C(=O)O; hArg = N=C(N)NCCCC[C@H](N)C(=O)O; Cha = N[C@@H](CC1CCCCC1)C(=O)O; 40K‑mPEG = 40 kDa methoxy-PEG; pGlu = O=C1CC[C@@H](C(=O)O)N1; PEG11′ = not defined here; PEG23′ = not defined here; PEG35′ = not defined here; PEG47′ = not defined here; Nle = CCCC[C@H](N)C(=O)O

Columns and labels:
in vitro = conditions: rat
Method: Apelin peptides were spiked into freshly prepared mouse, rat, dog and human EDTA plasma to a final concentration of 5 μM. The plasma samples were then incubated at 37° C. over a period of 4 hr. Up to 8 time points were sampled to facilitate estimation of in vitro half life in plasma matrices. In a typical experiment, aliquot of 100 μL of plasma sample was taken from the incubation vial, followed by addition of 300 μL of MeOH containing internal standard. The quenched sample was centrifuged at 5500 g for 15 min after 15 min vortex in room temperature. The supernatant was then analyzed by high resolution LC-MS.

rat APJ receptor = target: T1, rat APJ receptor (Rattus norvegicus, UniProt Q9JHG3); assay: [35S]GTPγS assay, membranes from stable cell lines, rat APJ; format: biochemical; conditions: for in vitro potency relative to endogenous pyr apelin 13 (SEQ ID NO: 128) / in vitro potency, mono vs bis vs tetrakis 20 kDa PEG peptides: FIG. 11, in vitro rat GTPγS assay; for potency relative to monopeptide (SEQ ID NO: 494): FIG. 13, PEGylated bis-peptides on low molecular weight monodispersed PEG
T1 construct: expressed in transfected cells; CHO is named only for the cAMP assay
T1 sequence (Q9JHG3 1-377): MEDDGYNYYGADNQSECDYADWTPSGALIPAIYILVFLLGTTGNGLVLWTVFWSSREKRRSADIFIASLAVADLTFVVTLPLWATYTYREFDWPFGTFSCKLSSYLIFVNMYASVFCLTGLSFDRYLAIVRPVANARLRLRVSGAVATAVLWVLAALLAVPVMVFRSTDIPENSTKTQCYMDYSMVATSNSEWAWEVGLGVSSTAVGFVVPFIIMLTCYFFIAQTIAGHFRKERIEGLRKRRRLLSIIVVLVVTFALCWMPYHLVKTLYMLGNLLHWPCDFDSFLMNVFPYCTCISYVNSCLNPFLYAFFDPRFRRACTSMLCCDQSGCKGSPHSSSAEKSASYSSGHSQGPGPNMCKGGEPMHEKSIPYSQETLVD
Method: To assay for GTP, membranes were prepared from stable cell lines and used to determine the efficacy/potency of the modified peptides. The optimal experimental conditions for the concentrations of GDP, MgCl2 and NaCl in the assay buffer were initially determined. The membranes were incubated with modified peptides in the assay buffer. The reaction was initiated by addition of [^35S] GTPγS in the absence or presence of peptides and incubated at room temperature for 90 min. […] Bound [^35S] GTPγS was separated from free radiolabel by filtration. The filter bound radioactivity was determined by liquid scintillation counting.
A series of PEGylated peptides were prepared and screened in vitro to explore the effects of PEG size and peptide valency on potency and efficacy in the GTPγS assay. In the assay 20 kDA and 40 kDA PEG were compared (FIG. 10).
Additionally mono- and multivalent bis, and tetrakis-peptide conjugated PEGS were prepared to explore peptide valency. […]

FIGURE 4B = assay: FIGURE 4B
From the text: Table printed on a drawing sheet, FIGURE 4B
Section band inside the table: Peptides with thioether linker and 20 kDa PEG modification
The patent's description of the figure: FIGS. 4A-B. In vitro stability of APJ agonists in plasma.
First reader's note: Rows 3 and 9 of the grid are section headings spanning all columns (linker type of the 20 kDa PEGylated peptides).

CCCC[C@H](NC(=O)[C@@H]1CCCN1C(=O)CNC(=O)[C@H](CCCCN)NC(=O)[C@H](Cc1cn(CCOCCOCCOCCOCCOCCOCCOCCOCCOCCOCCN)nn1)NC(=O)[C@H](Cc1ccccc1)NC(=O)[C@H](CC(C)C)N(C)C(=O)[C@H](CCCCNC(=N)N)NC(=O)[C@@H]1CCCN1C(=O)[C@H](CCCNC(=N)N)NC(=O)[C@@H]1CCC(=O)N1)C(=O)N[C@H](Cc1ccccc1)C(=O)O [compound 29]
remaining at 1 h, 5 μM (in vitro; plasma): 50%

CCCC[C@H](NC(=O)[C@@H]1CCCN1C(=O)CNC(=O)[C@H](CCCCN)NC(=O)[C@H](Cc1c[nH]cn1)NC(=O)[C@H](CO)NC(=O)[C@H](CC1CCCCC1)NC(=O)[C@H](CCCCNC(=N)N)NC(=O)[C@@H]1CCCN1C(=O)[C@H](CCCNC(=N)N)NC(=O)[C@@H]1CCC(=O)N1)C(=O)N[C@@H](Cc1cccc2ccccc12)C(=O)O [compound 31] ([pGlu]RP[hArg][Cha]SHKGP[Nle][1Nal]-OH; C-terminus assumed)
remaining at 1 h, 5 μM (in vitro; rat EDTA plasma): 63%

CCCC[C@H](NC(=O)[C@@H]1CCCN1C(=O)CNC(=O)[C@H](CCCCN)NC(=O)[C@H](Cc1c[nH]cn1)NC(=O)[C@H](CO)NC(=O)[C@H](CC1CCCCC1)NC(=O)[C@H](CCCCNC(=N)N)NC(=O)[C@@H]1CCCN1C(=O)[C@H](CCCNC(=N)N)NC(=O)[C@@H]1CCC(=O)N1)C(=O)N[C@@H](Cc1ccc(Cl)cc1)C(=O)O [compound 32] ([pGlu]RP[hArg][Cha]SHKGP[Nle][Phe(4-Cl)]-OH; C-terminus assumed)
remaining at 1 h, 5 μM (in vitro; rat EDTA plasma): 64.6%

CCCC[C@H](NC(=O)[C@@H]1C[C@@H]2CCCC[C@@H]2N1C(=O)CNC(=O)[C@H](CCCCN)NC(=O)[C@H](Cc1cn(CCOCCOCCOCCOCCOCCOCCOCCOCCOCCOCCN)nn1)NC(=O)[C@H](Cc1ccccc1)NC(=O)[C@H](CC1CCCCC1)NC(=O)[C@H](CCCCNC(=N)N)NC(=O)[C@@H]1CCCN1C(=O)[C@H](CCCNC(=N)N)NC(=O)[C@@H]1CCC(=O)N1)C(=O)N[C@H](Cc1ccccc1)C(=O)O [compound 33]
remaining at 1 h, 5 μM (in vitro; plasma): 66%

CCCC[C@H](NC(=O)[C@@H]1C[C@@H]2CCCC[C@@H]2N1C(=O)CNC(=O)[C@H](CCCCN)NC(=O)[C@H](Cc1c[nH]cn1)NC(=O)[C@H](Cc1cn(CCOCCOCCOCCOCCOCCOCCOCCOCCOCCOCCN)nn1)NC(=O)[C@H](CC1CCCCC1)NC(=O)[C@H](CCCCNC(=N)N)NC(=O)[C@@H]1CCCN1C(=O)[C@H](CCCNC(=N)N)NC(=O)[C@@H]1CCC(=O)N1)C(=O)N1CCC[C@H]1C(=O)N[C@@H](Cc1ccc(Cl)cc1)C(=O)O [compound 34]
remaining at 1 h, 5 μM (in vitro; plasma): 72%

SEQ ID NO: 129: 20 kDa PEG-mono(Atz-KFRRQRP[hArg][Cha]SHKG[Oic][Nle]P[4-Cl—F]) (XKFRRQRPRLSHKGPMPF; not fully specified; 20 kDa PEG, Atz linker; non-natural residues; source: /note="N-term may or may not be modified by conjugation linker, an acyl group, an aryl group, an alkyl group, NPeg11, a PEG derivative or other serum half-life prolonging group"; MOD_RES (1)..(1): Atz)
in vitro potency relative to endogenous pyr apelin 13 (SEQ ID NO: 128) (rat APJ receptor): significantly more potent
in vitro potency, mono vs bis vs tetrakis 20 kDa PEG peptides (rat APJ receptor): approximately equipotent

SEQ ID NO: 130: 20 kDa PEG-bis(Atz-KFRRQRP[hArg][Cha]SHKG[Oic][Nle]P[4-Cl—F]) (KFRRQRP[hArg][Cha]SHKG[Oic][Nle]P[Phe(4-Cl)]; not fully specified (N-terminus); also: 20 kDa PEG carries two peptide copies)
in vitro potency relative to endogenous pyr apelin 13 (SEQ ID NO: 128) (rat APJ receptor): significantly more potent
in vitro potency, mono vs bis vs tetrakis 20 kDa PEG peptides (rat APJ receptor): approximately equipotent

SEQ ID NO: 131: 20 kDa PEG-tetrakis(Atz-KFRRQRP[hArg][Cha]SHKG[Oic][Nle]P[4-Cl—F]) (KFRRQRP[hArg][Cha]SHKG[Oic][Nle]P[Phe(4-Cl)]; not fully specified (N-terminus); also: 20 kDa PEG carries four peptide copies)
in vitro potency relative to endogenous pyr apelin 13 (SEQ ID NO: 128) (rat APJ receptor): significantly more potent
in vitro potency, mono vs bis vs tetrakis 20 kDa PEG peptides (rat APJ receptor): approximately equipotent

SEQ ID NO: 133: PEGylated bis-peptide, the shortest PEG conjugate (~0.6 kDa PEG) ([PEG11′][Atz]KFRRQRP[hArg][Cha]SHKG[Oic][Nle]P[Phe(4-Cl)]; not fully specified (residue 1); numbers in words are those of the source; also: bis-peptide: two peptide chains joined through PEG11 on Atz)
potency relative to monopeptide (SEQ ID NO: 494) (rat APJ receptor): reduced potency

SEQ ID NO: 134: PEGylated bis-peptide, 1 kDa PEG conjugate ([PEG23′][Atz]KFRRQRP[hArg][Cha]SHKG[Oic][Nle]P[Phe(4-Cl)]; not fully specified (residue 1); numbers in words are those of the source; also: bis-peptide: two peptide chains joined through PEG23 on Atz)
potency relative to monopeptide (SEQ ID NO: 494) (rat APJ receptor): increased potency

SEQ ID NO: 135: PEGylated bis-peptide, 1.7 kDa PEG conjugate ([PEG35′][Atz]KFRRQRP[hArg][Cha]SHKG[Oic][Nle]P[Phe(4-Cl)]; not fully specified (residue 1); numbers in words are those of the source; also: bis-peptide: two peptide chains joined through PEG35 on Atz)
potency relative to monopeptide (SEQ ID NO: 494) (rat APJ receptor): increased potency

SEQ ID NO: 136: PEGylated bis-peptide, 2.2 kDa PEG conjugate ([PEG47′][Atz]KFRRQRP[hArg][Cha]SHKG[Oic][Nle]P[Phe(4-Cl)]; not fully specified (residue 1); numbers in words are those of the source; also: bis-peptide: two peptide chains joined through PEG47 on Atz)
potency relative to monopeptide (SEQ ID NO: 494) (rat APJ receptor): increased potency

SEQ ID NO: 474: 40 Kda PEGylated peptide compared with the 20 kDa PEGylated peptide SEQ ID NO: 24 ({40K‑mPEG-Thiopropionyl}-KFRRQRP[hArg][Cha]SHKG[Oic][Nle]P[Phe(4-Cl)]-OH)
Emax relative to the 20 kDa PEGylated peptide (rat APJ receptor; FIG. 10): 84 % of 20 kDa

Thiopropionyl(20K-mPEG)- KFRRQRP[hArg][Cha]SHKG[Oic][Nle]P[4-Cl-F] [compound 44]
in vitro plasma stability (t1/2, min) | DOG (FIGURE 4B): 172 min
in vitro plasma stability (t1/2, min) | HUMAN (FIGURE 4B): 142 min
in vitro plasma stability (t1/2, min) | MOUSE (FIGURE 4B): 37 min
in vitro plasma stability (t1/2, min) | RAT (FIGURE 4B): 180 min

Thiopropionyl(20K-mPEG)- QRP[hArg][Cha]SHKG[Oic][Nle]P[4-Cl-F] [compound 48]
in vitro plasma stability (t1/2, min) | DOG (FIGURE 4B): 219 min
in vitro plasma stability (t1/2, min) | HUMAN (FIGURE 4B): 307 min
in vitro plasma stability (t1/2, min) | MOUSE (FIGURE 4B): 53 min
in vitro plasma stability (t1/2, min) | RAT (FIGURE 4B): 303 min

Thiopropionyl(20K-mPEG)- RQRP[hArg][Cha]SHKG[Oic][Nle]P[4-Cl-F] [compound 47]
in vitro plasma stability (t1/2, min) | DOG (FIGURE 4B): 279 min
in vitro plasma stability (t1/2, min) | HUMAN (FIGURE 4B): 300 min
in vitro plasma stability (t1/2, min) | MOUSE (FIGURE 4B): 41 min
